The target in assay [1] is T1, Human MTR4 (SKIV2L2, DOB1) (human, UniProt P42285 1-1042).
T1 sequence: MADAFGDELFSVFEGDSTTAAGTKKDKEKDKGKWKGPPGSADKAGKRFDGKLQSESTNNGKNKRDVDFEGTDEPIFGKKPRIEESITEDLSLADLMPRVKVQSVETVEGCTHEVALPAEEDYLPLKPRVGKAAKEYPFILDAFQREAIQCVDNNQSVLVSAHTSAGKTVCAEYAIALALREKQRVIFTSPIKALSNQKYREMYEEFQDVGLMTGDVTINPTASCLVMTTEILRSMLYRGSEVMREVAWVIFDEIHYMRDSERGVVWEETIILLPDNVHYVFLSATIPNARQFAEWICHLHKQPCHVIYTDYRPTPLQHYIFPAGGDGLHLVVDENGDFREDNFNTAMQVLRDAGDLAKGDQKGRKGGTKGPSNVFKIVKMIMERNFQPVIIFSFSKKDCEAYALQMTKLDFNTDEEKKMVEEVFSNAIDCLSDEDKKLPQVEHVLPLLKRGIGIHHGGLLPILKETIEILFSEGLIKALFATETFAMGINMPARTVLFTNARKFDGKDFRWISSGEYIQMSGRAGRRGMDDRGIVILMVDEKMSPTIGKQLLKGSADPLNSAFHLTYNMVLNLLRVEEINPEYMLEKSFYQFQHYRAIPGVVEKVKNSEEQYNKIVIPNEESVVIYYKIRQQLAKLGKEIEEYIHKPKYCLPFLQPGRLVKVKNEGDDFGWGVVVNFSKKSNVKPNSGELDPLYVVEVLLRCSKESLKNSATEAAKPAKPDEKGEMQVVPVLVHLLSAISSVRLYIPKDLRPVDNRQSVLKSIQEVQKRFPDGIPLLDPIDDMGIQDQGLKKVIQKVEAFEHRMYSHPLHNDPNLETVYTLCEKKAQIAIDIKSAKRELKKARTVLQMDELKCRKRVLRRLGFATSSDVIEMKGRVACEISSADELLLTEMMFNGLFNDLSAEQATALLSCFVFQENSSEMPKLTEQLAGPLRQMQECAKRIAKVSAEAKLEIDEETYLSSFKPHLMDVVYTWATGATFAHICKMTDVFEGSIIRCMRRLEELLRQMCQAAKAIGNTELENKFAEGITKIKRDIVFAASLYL
Kind of assay: cryo-EM structure.

Assay [2] concerns the target EXOSC3 (human, UniProt Q9NQT5 1-275). Nature of the assay: cryo-EM structure.

EXOSC3, sequence (Q9NQT5 whole entry): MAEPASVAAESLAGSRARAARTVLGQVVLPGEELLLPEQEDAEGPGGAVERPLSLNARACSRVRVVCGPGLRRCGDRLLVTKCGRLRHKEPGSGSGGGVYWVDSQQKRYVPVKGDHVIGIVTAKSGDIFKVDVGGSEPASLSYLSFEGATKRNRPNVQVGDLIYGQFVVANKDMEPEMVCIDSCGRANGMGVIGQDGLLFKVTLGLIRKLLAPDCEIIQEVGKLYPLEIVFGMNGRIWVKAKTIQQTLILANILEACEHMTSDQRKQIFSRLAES

B1: Human M-Phase-Phosphoprotein 6 (MPP6) (natural protein)
chain: MAAERKTRLSKNLLRMKFMQRGLDSETKKQLEEEEKKIISEEHWYLDLPELKEKESFIIEEQSFLLCEDLLYGRMSFRGFNPEVEKLMLQMNAKHKAEEVEDETVELDVSDEEMARRYETLVGTIGKKFARKRDHANYEEDENGDITPIKAKKMFLKPQD
Regarding B1, the binding result in assay [1] and in assay [2] was “binds” throughout.

The values are drawn from PMC6124691 (Cell, 2018).
